Results: patent US20200113997A1 (published 2020)

Molecular target: CH848 Env trimer expressed on the cell surface of CHO cells (HIV-1 (clade C, individual CH848, …))
Test: flow cytometry on CHO cells expressing CH848 Env

B1: DH270.IA4 (antibody, V domains shown)
VH: QVQLVQSGAEVKKPGASVKVSCKASGYTFTDYYIHWVRQAPGQGLEWMGWINPNTGRTNYAQKFQGRVTMTRDTSISTAYMELSRLRSDDTAVYYCARGGWIGLYYDSSGYPNFDYWGQGTLVTVSS
VL: QSALTQPASVSGSPGQSITISCTGTSYDVGSYNLVSWYQQHPGKAPKLMIYEVSKRPSGVSNRFSGSKSGNTASLTISGLQAEDEADYYCCSYAGSSTVIFGGGTKLTVL
notes: also called DH270_I4
binding result: no binding (tested: 5 ug/mL)
